± gives the uncertainty stated by the source.
B1: Segment polarity protein dishevelled homolog DVL-3, residues 2 to 81; numbered along this chain, Q92997 (parent)
chain: GETKIIYHLDGQETPYLVKLPLPAERVTLADFKGVLQRPSYKFFFKSMDDDFGVVKEEISDDNAKLPCFNGRVVSWLVSA

Variants of: B1
Assay: abundance fitness (aPCA) (normalised: wild type 0, dead -1); higher = more abundant; growth selection in yeast, the domain comes from the species named
Conditions: Homo sapiens

| Variant | abundance fitness |
| --- | --- |
| D31Y | -0.714 ± 0.2 |
| D31V | -0.448 ± 0.086 |
| D31I | -0.173 ± 0.13 |
| D31C | -0.359 ± 0.13 |
| D31L | -0.791 ± 0.11 |
| D31A | -0.099 ± 0.065 |
| D31N | -0.665 ± 0.3 |
| D31H | 0.282 ± 0.089 |
| D31M | -0.047 ± 0.091 |
| D31S | -0.577 ± 0.11 |
| D31F | -0.742 ± 0.24 |
| D31W | -0.618 ± 0.14 |
| D31T | -0.217 ± 0.087 |
| D31G | -0.776 ± 0.1 |
| D31Q | -0.634 ± 0.17 |
| D31E | -0.178 ± 0.081 |
| D31R | -0.711 ± 0.093 |
| D31P | -0.35 ± 0.12 |
| V35G | -0.842 ± 0.085 |
| V35I | -0.141 ± 0.1 |
| V35Q | -0.218 ± 0.085 |
| V35H | -0.301 ± 0.15 |
| V35F | -0.031 ± 0.12 |
| V35A | 0.173 ± 0.052 |

| Variant | abundance fitness |
| --- | --- |
| V35D | -0.892 ± 0.21 |
| V35N | -0.375 ± 0.19 |
| V35M | -0.25 ± 0.086 |
| V35C | -0.074 ± 0.099 |
| V35E | -0.468 ± 0.085 |
| V35Y | -0.212 ± 0.14 |
| V35S | -0.257 ± 0.073 |
| V35K | -0.365 ± 0.1 |
| V35P | -0.869 ± 0.18 |
| V35T | -0.167 ± 0.074 |
| V35L | -0.164 ± 0.06 |
| F43M | -0.291 ± 0.097 |
| F43D | -0.64 ± 0.13 |
| F43W | -0.58 ± 0.097 |
| F43L | -0.693 ± 0.11 |
| F43V | -0.658 ± 0.091 |
| F43T | -0.695 ± 0.13 |
| F43K | -0.644 ± 0.12 |
| F43G | -0.753 ± 0.073 |
| F43N | -0.565 ± 0.2 |
| F43A | -0.552 ± 0.093 |
| F43H | -0.799 ± 0.32 |
| F43C | -0.391 ± 0.12 |
| F43I | -0.611 ± 0.17 |

| Variant | abundance fitness |
| --- | --- |
| F43Q | -0.909 ± 0.18 |
| F43P | -1.12 ± 0.26 |
| G34Y | -0.388 ± 0.14 |
| G34N | 0.291 ± 0.092 |
| G34I | -0.519 ± 0.24 |
| G34T | -0.016 ± 0.078 |
| G34Q | 0.166 ± 0.076 |
| G34W | -0.649 ± 0.11 |
| G34L | -0.119 ± 0.058 |
| G34P | -1.03 ± 0.21 |
| G34R | 0.156 ± 0.043 |
| G34D | 0.418 ± 0.08 |
| G34M | 0.042 ± 0.072 |
| G34C | -0.213 ± 0.078 |
| G34V | -0.371 ± 0.066 |
| G34A | 0.174 ± 0.053 |
| G34H | -0.388 ± 0.16 |
| S40Q | 0.004 ± 0.076 |
| S40K | -0.091 ± 0.076 |
| S40D | 0.282 ± 0.065 |
| S40R | -0.254 ± 0.05 |
| S40V | 0.134 ± 0.046 |
| S40N | 0.167 ± 0.096 |
| S40A | -0.024 ± 0.051 |

| Variant | abundance fitness |
| --- | --- |
| S40L | -0.258 ± 0.059 |
| S40P | -0.261 ± 0.089 |
| S40C | 0.045 ± 0.073 |
| S40Y | 0.121 ± 0.092 |
| S40M | 0.098 ± 0.064 |
| S40G | 0.116 ± 0.039 |
| S40W | -0.1 ± 0.06 |
| S40E | 0.003 ± 0.057 |
| S40F | -0.157 ± 0.11 |
| K42R | 0.158 ± 0.042 |
| K42L | -0.86 ± 0.11 |
| K42D | -0.953 ± 0.23 |
| K42Q | -0.044 ± 0.083 |
| K42F | 0.052 ± 0.14 |
| K42N | -0.421 ± 0.12 |
| K42Y | -0.957 ± 0.33 |
| K42C | -0.624 ± 0.13 |
| K42W | -0.783 ± 0.12 |
| K42S | -0.716 ± 0.12 |
| K42A | -0.602 ± 0.099 |
| K42V | -0.841 ± 0.11 |
| K42H | -0.043 ± 0.14 |
| K42M | -0.659 ± 0.13 |
| K42E | -0.636 ± 0.11 |

| Variant | abundance fitness |
| --- | --- |
| K42T | -0.356 ± 0.093 |
| K42P | -0.763 ± 0.15 |
| A30S | -0.261 ± 0.062 |
| A30V | -0.742 ± 0.098 |
| A30H | -0.692 ± 0.19 |
| A30F | -0.858 ± 0.21 |
| A30L | -0.562 ± 0.08 |
| A30M | -0.479 ± 0.1 |
| A30D | -0.967 ± 0.2 |
| A30N | -0.433 ± 0.19 |
| A30R | 0.034 ± 0.041 |
| A30C | -0.696 ± 0.15 |
| A30K | 0.007 ± 0.066 |
| A30G | -0.045 ± 0.046 |
| A30Y | -0.468 ± 0.16 |
| A30Q | -0.465 ± 0.1 |
| A30W | -0.517 ± 0.09 |
| A30E | -0.831 ± 0.14 |
| A30T | -0.795 ± 0.15 |
| A30I | -0.82 ± 0.21 |
| R38D | 0.284 ± 0.1 |
| R38E | 0.13 ± 0.066 |
| R38V | -0.024 ± 0.057 |
| R38C | 0.139 ± 0.079 |

| Variant | abundance fitness |
| --- | --- |
| R38I | -0.181 ± 0.1 |
| R38T | 0.187 ± 0.064 |
| R38P | -0.341 ± 0.1 |
| R38N | 0.255 ± 0.085 |
| R38W | -0.099 ± 0.066 |
| R38A | 0.009 ± 0.064 |
| R38F | -0.142 ± 0.12 |
| R38Q | -0.069 ± 0.072 |
| R38S | 0.159 ± 0.053 |
| R38M | 0.032 ± 0.064 |
| R38G | -0.076 ± 0.052 |
| R38Y | -0.188 ± 0.12 |
| R38K | 0.147 ± 0.062 |
| R38L | -0.114 ± 0.056 |
| R38H | 0.001 ± 0.11 |
| A24S | -0.03 ± 0.056 |
| A24Q | -0.074 ± 0.084 |
| A24R | -0.492 ± 0.062 |
| A24P | 0.17 ± 0.062 |
| A24M | -0.546 ± 0.15 |
| A24L | -0.356 ± 0.063 |
| A24V | -0.42 ± 0.074 |
| A24W | -0.235 ± 0.08 |
| A24Y | -0.325 ± 0.15 |

| Variant | abundance fitness |
| --- | --- |
| A24T | -0.51 ± 0.11 |
| A24K | -0.174 ± 0.1 |
| A24N | -0.415 ± 0.15 |
| A24I | -0.431 ± 0.18 |
| T28K | -0.52 ± 0.1 |
| T28L | -0.73 ± 0.091 |
| T28M | -0.604 ± 0.11 |
| T28I | -0.578 ± 0.15 |
| T28W | -0.851 ± 0.12 |
| T28Q | -0.811 ± 0.13 |
| T28C | -0.793 ± 0.16 |
| T28F | -0.321 ± 0.16 |
| T28D | -0.401 ± 0.14 |
| T28E | -0.985 ± 0.14 |
| T28H | -0.411 ± 0.14 |
| T28P | -0.555 ± 0.1 |
| T28G | -0.597 ± 0.064 |
| T28R | -0.379 ± 0.053 |
| T28S | -0.757 ± 0.099 |
| T28N | -0.715 ± 0.15 |
| T28V | -0.574 ± 0.073 |
| F44C | -0.689 ± 0.15 |
| F44A | -0.614 ± 0.083 |

Source: the Human Domainome abundance scans (Beltran et al. 2025)
